Assay results reported in the Human Domainome abundance scans (Beltran et al. 2025).
± gives the uncertainty stated by the source.

B1: Double-stranded RNA-specific adenosine deaminase, residues 296 to 358; numbered along this chain, P55265 (parent)
chain: MAEIKEKICDYLFNVSDSSALNLAKNIGLTKARDINAVLIDMERQGDVYRQGTTPPIWHLTDK

Variants of: B1
Test: abundance fitness (aPCA) (normalised: wild type 0, dead -1); higher = more abundant; growth selection in yeast, the domain comes from the species named
Conditions: Homo sapiens

Abundance fitness: each site, then its substitutions
F13: E 0.383 ± 0.078 | G 0.335 ± 0.044
N22: L -0.479 ± 0.042 | P -0.219 ± 0.18 | D 0.004 ± 0.093 | W -0.609 ± 0.11 | E 0.165 ± 0.083 | Q 0.162 ± 0.099 | S -0.323 ± 0.066 | I -0.339 ± 0.12 | H -0.117 ± 0.17 | T -0.141 ± 0.087 | M -0.493 ± 0.1 | A -0.297 ± 0.12 | G -0.314 ± 0.087 | V -0.18 ± 0.078 | R -0.682 ± 0.11 | Y -0.386 ± 0.14 | K -0.424 ± 0.084
C9: V 0.217 ± 0.052 | I 0.338 ± 0.085 | N 0.077 ± 0.12 | Y 0.09 ± 0.077 | A -0.143 ± 0.05 | F 0.086 ± 0.11 | M 0.042 ± 0.062 | G -0.389 ± 0.036 | Q -0.105 ± 0.075 | L 0.168 ± 0.046 | E 0.002 ± 0.053 | T 0.119 ± 0.054 | W -0.018 ± 0.055 | D -0.678 ± 0.14 | R 0.233 ± 0.037 | H -0.125 ± 0.12 | K 0.278 ± 0.052
L21: R -0.02 ± 0.046 | I -0.044 ± 0.12 | T 0.125 ± 0.063 | M 0.029 ± 0.11 | V -0.015 ± 0.052 | E 0.476 ± 0.063 | Q 0.158 ± 0.095 | W -0.071 ± 0.067 | A 0.263 ± 0.068 | D 0.339 ± 0.083 | C -0.136 ± 0.056 | Y -0.111 ± 0.069 | H -0.046 ± 0.092 | S 0.05 ± 0.049 | G 0.009 ± 0.052 | N 0.067 ± 0.079
S18: Y -0.698 ± 0.11 | R -0.721 ± 0.056 | I -1.01 ± 0.21 | H -0.366 ± 0.081 | M -0.684 ± 0.1 | K -0.549 ± 0.063 | V -0.699 ± 0.062 | D -0.461 ± 0.085 | N -0.607 ± 0.096 | F -0.816 ± 0.15 | W -0.535 ± 0.079 | Q -0.481 ± 0.076 | P -0.83 ± 0.14 | T -0.388 ± 0.065 | E -0.49 ± 0.049
S16: Q -0.124 ± 0.063 | V -0.249 ± 0.061 | N -0.006 ± 0.087 | I -0.543 ± 0.11 | M -0.379 ± 0.077 | W -0.514 ± 0.086 | T -0.407 ± 0.064 | D -0.342 ± 0.074 | P -0.1 ± 0.062 | Y -0.684 ± 0.12 | K 0.206 ± 0.079 | L -0.525 ± 0.054 | H -0.108 ± 0.094 | A -0.018 ± 0.048 | C -0.25 ± 0.095
I27: L -0.01 ± 0.046 | M -0.359 ± 0.06 | G -0.611 ± 0.07 | E -0.274 ± 0.078 | A -0.471 ± 0.053 | K -0.324 ± 0.084 | H -0.548 ± 0.11 | D -0.277 ± 0.072
S19: T -0.236 ± 0.26 | Y -0.5 ± 0.38
V15: P -0.64 ± 0.17 | T -0.392 ± 0.11 | S -0.137 ± 0.062 | Q -0.288 ± 0.077 | I -0.2 ± 0.2 | W -0.213 ± 0.063 | A -0.147 ± 0.055 | R -0.231 ± 0.049 | F 0.045 ± 0.12 | D -0.463 ± 0.1 | C -0.365 ± 0.078 | G -0.377 ± 0.053 | M -0.203 ± 0.078 | H 0.489 ± 0.23 | Y -0.202 ± 0.096 | K -0.089 ± 0.058 | E -0.025 ± 0.057
K5: V -0.652 ± 0.073 | W -0.465 ± 0.077 | T -0.601 ± 0.077 | Y -0.79 ± 0.11
L12: Q -0.512 ± 0.16 | F -0.727 ± 0.3 | T -0.99 ± 0.36 | M -0.82 ± 0.21 | K -0.95 ± 0.23 | H -0.46 ± 0.21 | C -1.02 ± 0.3 | R -0.367 ± 0.085 | Y -0.044 ± 0.29 | E -0.115 ± 0.098 | I -0.69 ± 0.42 | V -0.669 ± 0.078 | A -0.481 ± 0.12 | S -0.295 ± 0.096 | W -1.01 ± 0.24 | G -0.441 ± 0.09 | D -0.706 ± 0.34
D17: M -0.499 ± 0.27 | A 0.405 ± 0.22 | T -0.501 ± 0.49
E6: R -0.338 ± 0.056 | I -0.886 ± 0.15 | G -0.246 ± 0.056 | Q -0.03 ± 0.087 | L -0.57 ± 0.068 | S -0.39 ± 0.062 | Y -0.832 ± 0.26 | W -0.793 ± 0.088 | H -0.557 ± 0.1 | K 0.056 ± 0.23 | P -0.831 ± 0.13 | V -0.589 ± 0.069 | M -0.25 ± 0.1 | D -0.517 ± 0.15 | N -0.428 ± 0.12 | C -0.654 ± 0.21 | A -0.148 ± 0.055 | F -0.839 ± 0.27
Y11: R -0.376 ± 0.046 | Q -0.204 ± 0.075 | D -0.488 ± 0.087 | A -0.126 ± 0.047 | E -0.035 ± 0.05 | I -0.214 ± 0.15 | G -0.391 ± 0.049 | F -0.056 ± 0.11 | T -0.341 ± 0.067 | P -0.175 ± 0.06 | C -0.22 ± 0.076 | K -0.256 ± 0.057 | V -0.359 ± 0.051 | S -0.255 ± 0.052 | N -0.407 ± 0.16 | M -0.429 ± 0.066
